Assay results taken from IntAct's records for PubMed 22484091.

B1: BRO1 domain-containing protein BROX (Homo sapiens), Q5VW32 (parent)
chain: MTHWFHRNPLKATAPVSFNYYGVVTGPSASKICNDLRSSRARLLELFTDLSCNPEMMKNAADSYFSLLQGFINSLDESTQESKLRYIQNFKWTDTLQGQVPSAQQDAVFELISMGFNVALWYTKYASRLAGKENITEDEAKEVHRSLKIAAGIFKHLKESHLPKLITPAEKGRDLESRLIEAYVIQCQAEAQEVTIARAIELKHAPGLIAALAYETANFYQKADHTLSSLEPAYSAKWRKYLHLKMCFYTAYAYCYHGETLLASDKCGEAIRSLQEAEKLYAKAEALCKEYGETKGPGPTVKPSGHLFFRKLGNLVKNTLEKCQRENGFIYFQKIPTEAPQLELKANYGLVEPIPFEFPPTSVQWTPETLAAFDLTKRPKDDSTKPKPEEEVKPVKEPDIKPQKDTGCYIS
partner: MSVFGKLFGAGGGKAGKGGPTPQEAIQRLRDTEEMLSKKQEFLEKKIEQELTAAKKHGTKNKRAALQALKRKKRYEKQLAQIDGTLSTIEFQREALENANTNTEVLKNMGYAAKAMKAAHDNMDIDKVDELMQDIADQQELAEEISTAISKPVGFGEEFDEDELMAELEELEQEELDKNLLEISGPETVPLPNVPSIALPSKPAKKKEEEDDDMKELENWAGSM
B2: BRO1 domain-containing protein BROX (Homo sapiens), Q5VW32 (parent)
chain: B1 chain
B3: Charged multivesicular body protein 4b (Homo sapiens), Q9H444 (parent)
chain: B1 partner

Variants of: B1
Conditions: with chm4b_human CHMP4B

Variant | effect of a mutation on the interaction
L208D;L212D | disrupting interaction strength

Variants of: B2
Conditions: with CHMP5, Q9NZZ3-1
CHMP5, Q9NZZ3-1, sequence (Q9NZZ3 whole entry): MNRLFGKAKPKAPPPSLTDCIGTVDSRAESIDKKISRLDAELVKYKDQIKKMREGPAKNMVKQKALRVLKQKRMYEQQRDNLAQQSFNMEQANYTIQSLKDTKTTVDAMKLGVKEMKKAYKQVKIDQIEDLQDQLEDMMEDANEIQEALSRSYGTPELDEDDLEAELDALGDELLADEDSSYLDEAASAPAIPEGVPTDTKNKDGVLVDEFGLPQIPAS

Variant | effect of a mutation on the interaction
Y348A | disrupting interaction strength
H204A | disrupting interaction strength
L208D;L212D | disrupting interaction strength

Variants of: B3
Conditions: with brox_human BROX

Variant | effect of a mutation on the interaction
W220A | decreasing interaction strength
L217A | decreasing interaction strength
